Data on one protein can be found in article PMC3981807.

Substrate in the data set: O=P(O)(O)O[C@H]1[C@H](OP(=O)(O)O)[C@@H](OP(=O)(O)O)[C@H](OP(=O)(O)O)[C@@H](OP(=O)(O)O)[C@H]1OP(=O)(O)O
The data set can be described thus: purified protein. Conditions: 50 mM sodium acetate pH 4.0, 50 °C, ionic strength 50 mM (NaCl), 3 min, sodium phytate 0.006-0.800 mM.

B1: Bd1204 (Bdellovibrio bacteriovorus HD100) (protein)
chain: QKSVSLTPDKPVSTKIPFFMTRPQPTTPVELVFDKDHAAPKPMNYRKSDSLRMSGSATFSPKALKEVAKPVKKNKASLYVFDLRQESHGLINDIPVTWYADRDWANADLNHEEAVRRERRLLGDLRVGDKIGTTAIQSIETEESMIRTGGHQYVRLTVTDHVRPVDSEVDRFIESVRALPENAWVHFHCRAGKGRTTTFMVLYDMLKNAKTDSFEEIIKRNTELSNDYDVLTVPADEKDWKYPYQKERAAFVTEFYNYAKAHPNGEGMLWGEWVLR
For the protein B1, the Km (commonly the concentration of substrate that gives half-maximal velocity) was found to be 574 µM; the kcat (in general, the number of substrate molecules converted per active site and unit of time at saturation) came to 124 s⁻¹.
